What all share (assay): cross-linking; BS3 (unlabeled, or 50:50 with 2H12-labeled BS3) on the purified native holoenzyme; 150 mM NaPO4, 150 mM KOAc, pH 7.5, 5% glycerol, 2 mM DTT; procedure A 2.7 mM reagent 120 min on ice; trypsin digest, LC-MS/MS, Protein Prospector
Common to all, as to conditions: both partners purified

Assay [1] concerns the target T1, Med14 (Rgr1), Mediator subunit (S. cerevisiae, UniProt P19263 1-1082).
T1 construct: Med14 (Rgr1), S. cerevisiae, endogenous, residues 1-1082 spoken of; source: endogenous, S. cerevisiae CB010 double-tagged strain; within the purified native holoenzyme
T1 sequence (looked up): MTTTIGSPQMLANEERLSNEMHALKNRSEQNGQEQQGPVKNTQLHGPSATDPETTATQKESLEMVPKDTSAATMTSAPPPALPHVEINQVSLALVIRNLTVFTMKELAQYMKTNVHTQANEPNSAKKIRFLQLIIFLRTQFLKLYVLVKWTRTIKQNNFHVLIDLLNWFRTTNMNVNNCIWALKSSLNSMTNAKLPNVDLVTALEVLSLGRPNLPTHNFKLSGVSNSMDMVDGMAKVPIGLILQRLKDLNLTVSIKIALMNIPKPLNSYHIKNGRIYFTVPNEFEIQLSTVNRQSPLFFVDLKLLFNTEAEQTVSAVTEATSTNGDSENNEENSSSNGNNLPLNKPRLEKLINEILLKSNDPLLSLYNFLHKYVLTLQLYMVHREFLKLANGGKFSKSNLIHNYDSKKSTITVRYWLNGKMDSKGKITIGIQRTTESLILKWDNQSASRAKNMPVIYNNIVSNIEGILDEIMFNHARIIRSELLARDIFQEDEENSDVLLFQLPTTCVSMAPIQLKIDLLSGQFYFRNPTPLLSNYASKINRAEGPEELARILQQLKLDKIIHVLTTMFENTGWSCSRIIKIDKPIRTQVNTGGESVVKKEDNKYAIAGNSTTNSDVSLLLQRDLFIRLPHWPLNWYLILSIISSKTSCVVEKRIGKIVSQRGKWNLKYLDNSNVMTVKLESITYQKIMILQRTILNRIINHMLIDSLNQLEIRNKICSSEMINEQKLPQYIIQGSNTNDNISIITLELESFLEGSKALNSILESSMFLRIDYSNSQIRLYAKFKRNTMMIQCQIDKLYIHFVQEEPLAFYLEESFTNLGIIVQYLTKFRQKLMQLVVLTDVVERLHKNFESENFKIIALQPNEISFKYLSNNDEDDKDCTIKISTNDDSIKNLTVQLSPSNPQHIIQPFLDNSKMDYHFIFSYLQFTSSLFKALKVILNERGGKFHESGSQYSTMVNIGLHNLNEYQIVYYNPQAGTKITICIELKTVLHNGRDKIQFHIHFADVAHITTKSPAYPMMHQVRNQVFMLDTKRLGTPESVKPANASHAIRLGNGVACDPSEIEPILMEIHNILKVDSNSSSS

In assay [2] the target is T2, Med1, Mediator Middle module subunit (S. cerevisiae, UniProt Q12321 1-566).
T2 construct: Med1, S. cerevisiae, endogenous; source: endogenous, S. cerevisiae CB010 double-tagged strain; within the purified native holoenzyme
T2 sequence (looked up): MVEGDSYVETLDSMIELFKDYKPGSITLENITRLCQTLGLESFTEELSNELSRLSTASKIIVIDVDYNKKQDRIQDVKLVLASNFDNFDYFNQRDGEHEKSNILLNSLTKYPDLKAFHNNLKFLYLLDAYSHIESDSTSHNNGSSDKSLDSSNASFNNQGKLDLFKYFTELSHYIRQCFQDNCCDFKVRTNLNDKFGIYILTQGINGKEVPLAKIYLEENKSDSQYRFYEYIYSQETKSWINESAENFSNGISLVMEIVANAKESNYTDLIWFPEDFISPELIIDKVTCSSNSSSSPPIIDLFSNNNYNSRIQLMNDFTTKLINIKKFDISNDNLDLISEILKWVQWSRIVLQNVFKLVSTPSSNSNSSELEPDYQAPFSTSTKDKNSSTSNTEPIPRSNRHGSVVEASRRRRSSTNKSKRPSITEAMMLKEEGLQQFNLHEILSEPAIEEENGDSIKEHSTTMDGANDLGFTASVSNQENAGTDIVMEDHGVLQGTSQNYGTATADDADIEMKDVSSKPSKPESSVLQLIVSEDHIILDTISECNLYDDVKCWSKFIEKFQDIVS

The target in assay [3] is T3, Med5 (Nut1), Mediator Tail module subunit (S. cerevisiae, UniProt P53114 1-1132).
T3 construct: Med5 (Nut1), S. cerevisiae, endogenous; source: endogenous, S. cerevisiae CB010 double-tagged strain; within the purified native holoenzyme
T3 sequence (looked up): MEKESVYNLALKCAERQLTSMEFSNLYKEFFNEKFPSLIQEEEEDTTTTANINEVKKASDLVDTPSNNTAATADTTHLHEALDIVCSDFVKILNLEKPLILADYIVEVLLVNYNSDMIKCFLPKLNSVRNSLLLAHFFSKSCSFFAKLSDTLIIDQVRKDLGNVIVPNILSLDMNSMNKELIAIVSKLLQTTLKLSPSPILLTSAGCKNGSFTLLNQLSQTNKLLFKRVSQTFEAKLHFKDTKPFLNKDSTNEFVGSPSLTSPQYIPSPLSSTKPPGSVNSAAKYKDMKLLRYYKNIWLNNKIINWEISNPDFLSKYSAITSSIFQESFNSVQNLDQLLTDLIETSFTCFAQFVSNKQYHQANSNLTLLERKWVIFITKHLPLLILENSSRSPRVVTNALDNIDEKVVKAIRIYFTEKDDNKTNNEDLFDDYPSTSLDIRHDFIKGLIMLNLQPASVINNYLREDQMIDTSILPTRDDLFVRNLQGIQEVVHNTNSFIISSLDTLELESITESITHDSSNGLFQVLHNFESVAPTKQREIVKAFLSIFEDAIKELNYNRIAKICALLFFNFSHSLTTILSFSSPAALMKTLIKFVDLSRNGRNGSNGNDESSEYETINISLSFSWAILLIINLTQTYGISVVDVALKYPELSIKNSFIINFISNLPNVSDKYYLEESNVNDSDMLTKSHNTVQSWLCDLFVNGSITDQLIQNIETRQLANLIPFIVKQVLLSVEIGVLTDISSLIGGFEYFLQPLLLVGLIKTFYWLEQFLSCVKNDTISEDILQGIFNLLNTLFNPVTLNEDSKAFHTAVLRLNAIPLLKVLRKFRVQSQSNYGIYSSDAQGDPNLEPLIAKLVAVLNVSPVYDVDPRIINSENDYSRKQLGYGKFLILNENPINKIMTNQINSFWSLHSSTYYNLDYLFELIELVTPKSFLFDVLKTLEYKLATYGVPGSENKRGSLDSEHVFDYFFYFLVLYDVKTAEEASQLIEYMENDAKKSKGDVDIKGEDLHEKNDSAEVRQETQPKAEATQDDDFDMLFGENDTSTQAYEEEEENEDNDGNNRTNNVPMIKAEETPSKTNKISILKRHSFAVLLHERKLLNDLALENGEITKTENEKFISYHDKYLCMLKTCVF

B1: Med10 (Nut2), Mediator Middle module subunit (natural protein, S. cerevisiae, UniProt Q06213 1-157, looked up)
chain: MNGNSTNNEQLQQELATTQDQVASIIESFVELGVSIYDFPGTPEATKGMITNLQRNVDRLYKLNVRSNDPQSSLSKVDIPLEVVQYIEDGRNPDIYTREFVEAIRRSNQYQRGKMHGLKQLRDSLADKIVDEFPELKEPVEDIIKRTSPIDNVSNTH
notes: Med10 (Nut2), S. cerevisiae, endogenous; source: endogenous, S. cerevisiae CB010 double-tagged strain; within the purified native holoenzyme
As for B1, in assay [1], the binding result is listed as “binds”.

B2: Med4, Mediator Middle module subunit (natural protein, S. cerevisiae, UniProt Q12343 1-284, looked up)
chain: MSVQDTKAVEFSMGHIRSSSVSLVAEATSNTNSEDKLSKVQLYEDLCRYEDTLSKLVESVDRFKPNLDIAKDLIRTDEALFENVKLLAEYDNIYRNLQKIDKDSEELDSKTRKILEILNECHDELKALPMLEQVEFEKNTILQQRSKINSTELLDYATKLSKFTKIPPTFDKGAVGPNNFIWPAEDALRRGMLAMASLHSKELTRIPGEEVEETEVPTVPPSQSEEQKGQMAKKEGTPKTDSFIFDGTAKEVGDEADNTKDKEKEENNDDALDLDLDLFDPDDF
notes: Med4, S. cerevisiae, endogenous; source: endogenous, S. cerevisiae CB010 double-tagged strain; within the purified native holoenzyme
For B2, the binding result in assay [2] and in assay [1] was “binds” in each case.

B3: Med2, Mediator Tail module subunit (natural protein, S. cerevisiae, UniProt Q12124 1-431, looked up)
chain: MVVQNSPVSSVHTANFSERGSNTRTMTYKNKLTVCFDDILKVGAEMMMQQQLKNVQLDSYLVNGFSQSQQKLLKEKVKLFHGILDDLETSLSQSSSYLETLTALGKEKEKEREEAEKKRAEQENMRKVREQEELKKRQELEEASQQQQLQQNSKEKNGLGLNFSTTAPANTTDANGSKENYQELGSLQSSSQTQLENANAANNGAAFSPLTTTRIQSQQAQPSDVMFNDLNSMDISMFSGLDSTGFDSTAFNATVDETKGFDDNDSGNNYNDINISSIENNINNNINSTKNGKDNNNESNKNNNGDEKNKNNNEDNENNNNSSEKNNNNNNNNNNNNDDNGNNNNNNSGNDNNNTTNNDSNNKNNSITTGNDNENIVNNDLPTTVVSNPGDNPPPADNGEEYLTLNDFNDLNIDWSTTGDNGELDLSGFNI
notes: Med2, S. cerevisiae, endogenous; source: endogenous, S. cerevisiae CB010 double-tagged strain; within the purified native holoenzyme
For B3, the binding result in assay [1] is “binds”.

B4: Med17 (Srb4), Mediator Head module subunit (natural protein, S. cerevisiae, UniProt P32569 1-687, looked up)
chain: MTTEDPDSNHLSSETGIKLALDPNLITLALSSNPNSSLHSPTSDEPVPESAGKADTSIRLEGDELENKTKKDNDKNLKFLKNKDSLVSNPHEIYGSMPLEQLIPIILRQRGPGFKFVDLNEKELQNEIKQLGSDSSDGHNSEKKDTDGADENVQIGEDFMEVDYEDKDNPVDSRNETDHKTNENGETDDNIETVMTQEQFVKRRRDMLEHINLAMNESSLALEFVSLLLSSVKESTGMSSMSPFLRKVVKPSSLNSDKIPYVAPTKKEYIELDILNKGWKLQSLNESKDLLRASFNKLSSILQNEHDYWNKIMQSISNKDVIFKIRDRTSGQKLLAIKYGYEDSGSTYKHDRGIANIRNNIESQNLDLIPHSSSVFKGTDFVHSVKKFLRVRIFTKIESEDDYILSGESVMDRDSESEEAETKDIRKQIQLLKKIIFEKELMYQIKKECALLISYGVSIENENKVIIELPNEKFEIELLSLDDDSIVNHEQDLPKINDKRANLMLVMLRLLLVVIFKKTLRSRISSPHGLINLNVDDDILIIRPILGKVRFANYKLLLKKIIKDYVLDIVPGSSITETEVEREQPQENKNIDDENITKLNKEIRAFDKLLNIPRRELKINLPLTEHKSPNLSLMLESPNYCNALIHIKFSAGTEANAVSFDTTFSDFKEVEDFLHFIVAEYIQQKKV
notes: Med17 (Srb4), S. cerevisiae, endogenous, residues 1-687 spoken of; cross-linking was done after cleavage; also called Med17p; source: endogenous, S. cerevisiae CB010 double-tagged strain; within the purified native holoenzyme; not shown: TAP, N-terminal, cleaved
With B4, the binding result in assay [1] is “binds”.

B5: Med15 (Gal11), Mediator Tail module subunit (natural protein, S. cerevisiae, UniProt P19659 1-1081, looked up)
chain: MSAAPVQDKDTLSNAERAKNVNGLLQVLMDINTLNGGSSDTADKIRIHAKNFEAALFAKSSSKKEYMDSMNEKVAVMRNTYNTRKNAVTAAAANNNIKPVEQHHINNLKNSGNSANNMNVNMNLNPQMFLNQQAQARQQVAQQLRNQQQQQQQQQQQQRRQLTPQQQQLVNQMKVAPIPKQLLQRIPNIPPNINTWQQVTALAQQKLLTPQDMEAAKEVYKIHQQLLFKARLQQQQAQAQAQANNNNNGLPQNGNINNNINIPQQQQMQPPNSSANNNPLQQQSSQNTVPNVLNQINQIFSPEEQRSLLQEAIETCKNFEKTQLGSTMTEPVKQSFIRKYINQKALRKIQALRDVKNNNNANNNGSNLQRAQNVPMNIIQQQQQQNTNNNDTIATSATPNAAAFSQQQNASSKLYQMQQQQQAQAQAQAQAQAQAQAQAQAQAAQAAQAQAQAQAQAQAQAQAQAQAQAQAQAQAQAQAQAHAQHQPSQQPQQAQQQPNPLHGLTPTAKDVEVIKQLSLDASKTNLRLTDVTNSLSNEEKEKIKMKLKQGQKLFVQVSNFAPQVYIITKNENFLKEVFQLRIFVKEILEKCAEGIFVVKLDTVDRLIIKYQKYWESMRIQILRRQAILRQQQQMANNNGNPGTTSTGNNNNIATQQNMQQSLQQMQHLQQLKMQQQQQQQQQQQQQQQQQQQQQQQHIYPSSTPGVANYSAMANAPGNNIPYMNHKNTSSMDFLNSMENTPKVPVSAAATPSLNKTINGKVNGRTKSNTIPVTSIPSTNKKLSISNAASQQPTPRSASNTAKSTPNTNPSPLKTQTKNGTPNPNNMKTVQSPMGAQPSYNSAIIENAFRKEELLLKDLEIRKLEISSRFKHRQEIFKDSPMDLFMSTLGDCLGIKDEEMLTSCTIPKAVVDHINGSGKRKPTKAAQRARDQDSIDISIKDNKLVMKSKFNKSNRSYSIALSNVAAIFKGIGGNFKDLSTLVHSSSPSTSSNMDVGNPRKRKASVLEISPQDSIASVLSPDSNIMSDSKKIKVDSPDDPFMTKSGATTSEKQEVTNEAPFLTSGTSSEQFNVWDWNNWTSAT
notes: Med15 (Gal11), S. cerevisiae, endogenous; source: endogenous, S. cerevisiae CB010 double-tagged strain; within the purified native holoenzyme
On to B5, for which the binding result in assay [3] and in assay [1] was “binds” each time.

These data come from article PMC4631838, “Molecular architecture of the yeast Mediator complex” (eLife, 2015).
